Measurements as given in PMC6757426, “Stability and flexibility of full-length human oligodendrocytic QKI6” (BMC Research Notes, 2019).

Target: the molecule itself
Experiment: SEC-MALS; Superdex 200 pg increase 10/300GL, 20 mM Tris-HCl, 300 mM NaCl, 0.5 mM TCEP, pH 8.0; 200 ug QKI6 injected at 0.4 ml/min; no RNA

B1: Quaking isoform 6 (QKI6), full-length human (natural protein, UniProt Q96PU8-9 1-319, looked up)
chain: MVGEMETKEKPKPTPDYLMQLMNDKKLMSSLPNFCGIFNHLERLLDEEISRVRKDMYNDTLNGSTEKRSAELPDAVGPIVQLQEKLYVPVKEYPDFNFVGRILGPRGLTAKQLEAETGCKIMVRGKGSMRDKKKEEQNRGKPNWEHLNEDLHVLITVEDAQNRAEIKLKRAVEEVKKLLVPAAEGEDSLKKMQLMELAILNGTYRDANIKSPALAFSLAATAQAAPRIITGPAPVLPPAALRTPTPAGPTIMPLIRQIQTAVMPNGTPHPTAAIVPPGPEAGLIYTPYEYPYTLAPATSILEYPIEPSGVLGMAFPTKG
notes: Quaking isoform 6 (QKI6), human, UniProt Q96PU8-9, amino acids 1-319; calculated molecular weight of the construct 35,187.8 Da; also called full-length QKI6; human QKI6; source: E. coli BL21(DE3), purified (Ni-NTA, TEV digestion, second Ni-NTA, gel filtration on Superdex 200)
- stoichiometry N: 2
